B1: mRNA-splicing (parent)
chain: AGUUGCUGCUGGGAGCUCCAGCACAGUGAAAUGGACAGAAGGGCAGAGCAA

Variants of: B1
Assay: exon inclusion enrichment index; higher = more inclusion; WT1 exon 5 minigene, HEK293

Variant	exon inclusion enrichment index
AGUUCGCGCCGGCGGCUCCAGCACAGUGAAAUGGACAGAAGGGCAGAGCAA	1.61
AGUUCGCGCCGGGAGCUCCAGCACAGUGAAAUGGAAAGAAGGGCAGAGCAA	2.93
AGUUCGCGCCGGGAGCUCCAGCACAGUGAAAUGGAGAGAAGGGCAGAGCAA	3.17
AGUUCGCGCCGGGAGCUCCAGCACAGUGAAAUGGAUAGAAGGGCAGAGCAA	1.33
AGUUCGCGCCGGGAGCUCCAGCACAGUGAAAUGGACAGAAGGGGAGAGCAA	4.42
AGUUCGCGCCGGGAGCUCCAGCACAGUGAAAUGGACAGAAGGGAAGAGCAA	4.17
AGUUCGCGCCGGGAGCUCCAGCACAGUGAAAUGGACAGAAGGGUAGAGCAA	1.47
AGUUCGCGCCGGGAGCUCCAGCACACCGAAAUGGACAGAAGGGCAGAGCAA	4.24
AGUUCGCGCCGGGAGCUCCAGCACACAGAAAUGGACAGAAGGGCAGAGCAA	3.33
AGUUCGCGCCGGGAGCUCCAGCACACGGAAAUGGACAGAAGGGCAGAGCAA	4.43
AGUUCGCGCCUGGAGCUCCAGCACAGUGAAAUGGACAGAAGGGCAGAGCAA	3.33
AGUUCGCGCCAGGAGCUCCAGCACAGUGAAAUGGACAGAAGGGCAGAGCAA	2.79
AGUUCGCGCCCGGAGCUCCAGCACAGUGAAAUGGACAGAAGGGCAGAGCAA	2.92
AGUUCGCGCCGAGAGCUCCAGCACAGUGAAAUGGACAGAAGGGCAGAGCAA	2.53
AGUUCGCGCCGCGAGCUCCAGCACAGUGAAAUGGACAGAAGGGCAGAGCAA	0.252
AGUUCGCGCCGUGAGCUCCAGCACAGUGAAAUGGACAGAAGGGCAGAGCAA	1.53
AGUUCGCGCCGGGAGCUCCAGCACAGUGAAAUGGACAGAAGGGUUGAGCAA	2.84
AGUUCGCGCCGGGAGCUCCAGCACAGUGAAAUGGACAGAAGGGUCGAGCAA	4.13
AGUUCGCGCCGGGAGCUCCAGCACAGUGAAAUGGACAGAAGGGUGGAGCAA	2.53
AGUUCGCGCCGGGAGCUCCAGCACAACGAAAUGGACAGAAGGGCAGAGCAA	4.94
AGUUCGCGCCGGGAGCUCCAGCACAAAGAAAUGGACAGAAGGGCAGAGCAA	3.45
AGUUCGCGCCGGGAGCUCCAGCACAAGGAAAUGGACAGAAGGGCAGAGCAA	3.56
AGUUCGCGCCGGGAGCUCCACAACAGUGAAAUGGACAGAAGGGCAGAGCAA	3.02
AGUUCGCGCCGGGAGCUCCACGACAGUGAAAUGGACAGAAGGGCAGAGCAA	4.61
AGUUCGCGCCGGGAGCUCCACUACAGUGAAAUGGACAGAAGGGCAGAGCAA	3.43
AGUUCGCGCCGGGAGCUCCAGCACACUGAAAUGGACAGAAGGGCAGAGCAA	3.97

Variant	exon inclusion enrichment index
AGUUCGCGCCGGGAGCUCCAGCACAAUGAAAUGGACAGAAGGGCAGAGCAA	4.41
AGUUCGCGCCGGGACGUCCAGCACAGUGAAAUGGACAGAAGGGCAGAGCAA	3.66
AGUUCGCGCCGGGACUUCCAGCACAGUGAAAUGGACAGAAGGGCAGAGCAA	3.37
AGUUCGCGCCGGGACAUCCAGCACAGUGAAAUGGACAGAAGGGCAGAGCAA	3.23
AGUUCGCGCCGGGAUGUCCAGCACAGUGAAAUGGACAGAAGGGCAGAGCAA	4.02
AGUUCGCGCCGGGAUUUCCAGCACAGUGAAAUGGACAGAAGGGCAGAGCAA	3.3
AGUUCGCGCCGGGAUAUCCAGCACAGUGAAAUGGACAGAAGGGCAGAGCAA	3.58
AGUUCGCGCCGGGAGCUCCAGCACAGUGAAAUGGAACGAAGGGCAGAGCAA	3.59
AGUUCGCGCCGGGAGCUCCAGCACAGUGAAAUGGAAGGAAGGGCAGAGCAA	2.14
AGUUCGCGCCGGGAGCUCCAGCACAGUGAAAUGGAAUGAAGGGCAGAGCAA	2.07
AGUUCGCGCCGGGAGCUCCAACACAGUGAAAUGGACAGAAGGGCAGAGCAA	2.93
AGUUCGCGCCGGGAGCUCCAUCACAGUGAAAUGGACAGAAGGGCAGAGCAA	2.48
AGUUCGCGCCGGGAGCUCCACCACAGUGAAAUGGACAGAAGGGCAGAGCAA	3.41
AGUUCGCGCCGCAAGCUCCAGCACAGUGAAAUGGACAGAAGGGCAGAGCAA	0.8
AGUUCGCGCCGCUAGCUCCAGCACAGUGAAAUGGACAGAAGGGCAGAGCAA	0.128
AGUUCGCGCCGCCAGCUCCAGCACAGUGAAAUGGACAGAAGGGCAGAGCAA	0.519
AGUUCGCGCCGGGAGCUCCAGCAGGGUGAAAUGGACAGAAGGGCAGAGCAA	2.96
AGUUCGCGCCGGGAGCUCCAGCAGUGUGAAAUGGACAGAAGGGCAGAGCAA	3.91
AGUUCGCGCCGGGAGCUCCAGCAGCGUGAAAUGGACAGAAGGGCAGAGCAA	4.6
AGUUCGCGCCGGAUGCUCCAGCACAGUGAAAUGGACAGAAGGGCAGAGCAA	2.93
AGUUCGCGCCGGAGGCUCCAGCACAGUGAAAUGGACAGAAGGGCAGAGCAA	3.3
AGUUCGCGCCGGACGCUCCAGCACAGUGAAAUGGACAGAAGGGCAGAGCAA	3.48
AGUUCGCGCCGGGAGCUCCAGCAUCGUGAAAUGGACAGAAGGGCAGAGCAA	4.56
AGUUCGCGCCGGGAGCUCCAGCAUUGUGAAAUGGACAGAAGGGCAGAGCAA	3.01
AGUUCGCGCCGGGAGCUCCAGCAUGGUGAAAUGGACAGAAGGGCAGAGCAA	4.57
